Data published in patent US20250034594A1, “RNA-GUIDED GENOME RECOMBINEERING AT KILOBASE SCALE” (THE BOARD OF TRUSTEES OF THE LELAND STANFORD JUNIOR …, priority 2021, published 2025).

B1: Homolog_T11: RecT, Salmonella enterica; SEQ ID NO: 133 (protein, listed as Salmonella enterica)
chain: MTKQPPIAKADLQKTQGNRAPAAVNDKDVLCVINSPAMKAQLAAALPRHMTAERMIRIATTEIRKVPELRNCDSTSFIGAIVQCSQLGLEPGSALGHAYLLPFGNGKAKNGKKNVQLIIGYRGMIDLARRSGQIISLSARVVRECDEFSYELGLDEKLVHRPGENEDAPITHVYAVAKLKDGGVQFEVMTKKQVEKVRDTHSKAAKNAASKGASSIWDEHFEDMAKKTVIRKLFKYLPVSIEIQRAVSMDGKEVETINPDDISVIAGEYSVIDNPEE
B2: Homolog_T8: RecT, Shewanella putrefaciens; SEQ ID NO: 127 (protein, listed as Shewanella putrefaciens)
chain: MQTAQVKLSVPHQQVYQDNFNYLSSQVVGHLVDLNEEIGYLNQIVFNSLSTASPLDVAAPWSVYGLLLNVCRLGLSLNPEKKLAYVMPSWSETGEIIMKLYPGYRGEIAIASNFNVIKNANAVLVYENDHFRIQAATGEIEHFVTSLSIDPRVRGACSGGYCRSVLMDNTIQISYLSIEEMNAIAQNQIEANMGNTPWNSIWRTEMNRVALYRRAAKDWRQLIKATPEIQSALSDTEY
B3: Homolog_E10: RecE, Shigella sonnei; SEQ ID NO: 132 (protein, listed as Shigella sonnei)
chain: DRGLLTKEWRKGNRVSRITRTASGANAGGGNLTDRGEGFVHDLTSLARDIATGVLARSMDVDIYNLHPAHAKRIEEIIAENKPPFSVFRDKFITMPGGLDYSRAIVVASVKEAPIGIEVIPAHVTAYLNKVLTETDHANPDPEIVDIACGRSSAPMPQRVTEEGKQDDEEKLQPSGTTADEQGEAETMEPDATKHHQDTQPLDAQSQVNSVDAKYQELRAELHEARKNIPSKNPVDADKLLAASRGEFVDGISDPNDPKWVKGIQTRDSVYQNQPETEKTSPDMKQPEPVVQQEPEIAFNACGQTGGDNCPDCGAVMGDATYQETFDEENQVEAKENDPEEMEGAEHPHNENAGSDPHRDCSDETGEVADPVIVEDIEPGIYYGISNENYHAGPGVSKSQLDDIADTPALYLWRKNAPVDTTKTKTLDLGTAFHCRVLEPEEFSNRFIVAPEFNRRTNAGKEEEKAFLMECASTGKMVITAEEGRKIELMYQSVMALPLGQWLVESAGHAESSIYWEDPETGILCRCRPDKIIPEFHWIMDVKTTADIQRFKTAYYDYRYHVQDAFYSDGYEAQFGVQPTFVFLVASTTIECGRYPVEIFMMGEEAKLAGQLEYHRNLRTLADCLNTDEWPAIKTLSLPRWAKEYAND
B4: Homolog_T12: RecT, Acetobacter; SEQ ID NO: 135 (protein, listed as Acetobacter sp.)
chain: MNAPQKQNTRAAVKKISPQEFAEQFAAIIPQVKSVLPAHVTFEKFERVVRLAVRKNPDLLTCSPASLFMACIQAASDGLLPDGREGAIVSRWSSKKSCNEASWMPMVAGLMKLARNSGDIASISSQVVFEGEHFRVVLGDEERIEHERDLGKTGGKIVAAYAVARLKDGSDPIREIMSWGQIEKIRNTNKKWEWGPWKAWEDEMARKTVIRRLAKRLPMSTDKEGERLRSAIERIDSLVDISANVDAPQIAADDEFAAAAHGVEPQQIAAPDLIGRLAQMQSLEQVQDIEPQVSHAIQEADKRGDSDTANALDAALQSALSRTSTAKEEVPA
B5: Homolog_E11: RecE, Salmonella enterica; SEQ ID NO: 134 (protein, listed as Salmonella enterica)
chain: DRGLLTKEWRKGNRVSRITRTASGANAGGGNLTDRGEGFVHDLTSLARDVATGVLARSMDVDIYNLHPAHAKRVEEIIAENKPPFSVFRDKFITMPGGLDYSRAIVVASVKEAPIGIEVIPAHVTEYLNKVLTETDHANPDPEIVDIACGRSSAPMPQRVTEEGKQDDEEKPQPSGAMADEQATAETVEPNATEHHQNTQPLDAQSQVNSVDAKYQELRAELQEARKNIPSKNPVDADKLLAASRGEFVDGISDPNDPKWVKGIQTRDSVYQNQPETEKISPDAKQPEPVVQQEPETVCNACGQTGGDNCPDCGAVMGDATYQETFGEENQVEAKEKDPEEMEGAEHPHNENAGSDPHRDCSDETGEVADPVIVEDIEPGIYYGISNENYHAGPGVSKSQLDDIADTPALYLWRKNAPVDTTKTKTLDLGTAFHCRVLEPEEFSNRFIVAPEFNRRTNAGKEEEKAFLMECASTGKTVITAEEGRKIELMYQSVMALPLGQWLVESAGHAESSIYWEDPETGILCRCRPDKIIPEFHWIMDVKTTADIQRFKTAYYDYRYHVQDAFYSDGYEAQFGVQPTFVFLVASTTVECGRYPVEIFMMGEEAKLAGQQEYHRNLRTLADCLNTDEWPAIKTLSLPRWAKEYAND
B6: Homolog_E7: RecE, Providencia alcalifaciens DSM 30120; SEQ ID NO: 144 (protein, listed as Providencia alcalifaciens)
chain: MNEGIYYDISNEDYHHGLGISKSQLDLIDESPADFIWHRDAPVDNEKTKALDFGTALHCLLLEPDEFQKRFRIAPEVNRRTNAGKEQEKEFLEMCEKENITPITNEDNRKLSLMKDSAMAHPIARWCLEAKGIAESSIYWKDKDTDILCRCRPDKLIEEHHWLVDVKSTADIQKFERSMYEYRYHVQDSFYSDGYKSLTGEMPVFVFLAVSTVINCGRYPVRVFVLDEQAKSVGRITYKQNLFTYAECLKTDEWAGIRTLSLPSWAKELKHEHTTAS
B7: Homolog_E9: RecE, Bacillus sp. MUM 116; SEQ ID NO: 130 (protein, listed as Bacillus sp.)
chain: MTYAADETLVQLLLSVDGKQLLLGRGLKKGKAQYYINEVPSKAKEFEEIRDQLFDKDLFMSLFNPSYFFTLHWEKQRAMMLKYVTAPVSKEVLKNLPEAQSEVLERYLKKHSLVDLEKIHKDNKNKQDKAYISAQSRTNTLKEQLMQLTEEKLDIDSIKAELAHIDMQVIELEKQMDTAFEKNQAFNLQAQIRNLQDKIEMSKERWPSLKNEVIEDTCRTCKRPLDEDSVEAVKADKDNRIAEYKAKHNSLVSQRNELKEQLNTIEYIDVTELREQIKELDESGQPLREQVRIYSQYQNLDTQVKSAEADENGILQDLKASIFILDSIKAFRGKEAEMQAEKVQALFTTLSVRLFKQNKGDGEIKPDFEIEMNDKPYRTLSLSEGIRAGLELRDVLSQQSELVTPTFVDNAESITSFKQPNGQLIISRVVAGQELKIEAVSE
B8: Homolog_E12: RecE, Acetobacter; SEQ ID NO: 136 (protein, listed as Acetobacter sp.)
chain: MVISKSGIYDLTNEQYHADPCPEMSLSSSGARDLLSSCPAKFIAAKQLPQQNKRCFDIGSAGHLMVLEPHLFDQKVCEIKHPDWRTKAAKEERDAAYAEGRIPLLSREVEDIRAMHSVVWRDSLGARAFSGGKAEQSLVWRDEEFGIWCRLRPDYVPNNAVRIFDYKTATNGSPDAFMKEIYNRGYHQQAAWYLDGYEAVTGHRPREFWFVVQEKTAPFLLSFFQMDEMSLEIGRTLNRQAKGIFAWCLRNNCWPGYQPEVDGKVRFFTTSPPAWLVREYEFKNEHGAYEPPEIKRKEVA
B9: Homolog_E8: RecE, Shewanella putrefaciens; SEQ ID NO: 128 (protein, listed as Shewanella putrefaciens)
chain: MGTALAQTISLDWQDTIQPAYTASGKPNFLNAQGEIVEGIYTDLPNSVYHALDAHSSTGIKTFAKGRHHYFRQYLSDVCRQRTKQQEYTFDAGTYGHMLVLEPENFHGNFMRNPVPDDFPDIELIESIPQLKAALAKSNLPVSGAKAALIERLYAFDPSLPLFEKMREKAITDYLDLRYAKYLRTDVELDEMATFYGIDTSQTREKKIEEILAISPSQPIWEKLISQHVIDHIVWDDAMRVERSTRAHPKADWLISDGYAELTIIARCPTTGLLLKVRFDWLRNDAIGVDFKTTLSTNPTKFGYQIKDLRYDLQQVFYCYVANLAGIPVKHFCFVATEYKDADNCETFELSHKKVIESTEEMFDLLDEFKEALTSGNWYGHDRSRSTWVIEV
B10: Homolog_T10: RecT, Shigella sonnei; SEQ ID NO: 131 (protein, listed as Shigella sonnei)
chain: MTKQPPIAKADLQKTQENRAPAAIKNNDVISFINQPSMKEQLAAALPRHMTAERMIRIATTEIRKVPALGNCDTMSFVSAIVQCSQLGLEPGSALGHAYLLPFGNKNEKSGKKNVQLIIGYRGMIDLARRSGQIASLSARVVREGDEFNFEFGLDEKLIHRPGENEDAPVTHVYAVARLKDGGTQFEVMTRRQIELVRSQSKAGNNGPWVTHWEEMAKKTAIRRLFKYLPVSIEIQRAVSMDEKEPLTIDPADSSVLTGEYSVIDNSEE
B11: Homolog_T9: RecT, Bacillus sp. MUM 116; SEQ ID NO: 129 (protein, listed as Bacillus sp.)
chain: MSKQLTTVNTQAVVGTFSQAELDTLKQTIAKGTTNEQFALFVQTCANSRLNPFLNHIHCIVYNGKEGATMSLQIAVEGILYLARKTDGYKGIECQLIHENDEFKFDAKSKEVDHQIGFPRGNVIGGYAIAKREGFDDVVVLMESNEVDHMLKGRNGHMWRDWFNDMFKKHIMKRAAKLQYGIEIAEDETVSSGPSVDNIPEYKPQPRKDITPNQDVIDAPPQQPKQDDEAAKLKAARSEVSKKFKKLGIVKEDQTEYVEKHVPGFKGTLSDFIGLSQLLDLNIEAQEAQSADGDLLD

Columns and labels:
DYNLT1 locus = assay: mKate knock-in gene-editing assay, RecE/RecT homologs, DYNLT1 locus; format: cell-based, human; conditions: HEK293 cells, MCP fusion, n=3
Experimental: (§1) Transfection HEK293T cells were seeded into 96-well plates (Corning) 12-24 hours prior to transfection at a density of 30,000 cells/well, and 250 ng of total DNA was transfected per well. HeLa and HepG2 cells were seeded into 48-well plates (Corning) one day prior to transfection at a density of 50,000 and 30,000 cells/well respectively, and 400 ng of total DNA was transfected per well. Transfections were performed with Lipofectamine 3000 (Life Technologies) following the manufacturer's instructions.
(§2) Fluorescence-activated cell sorting (FACS) mKate knock-in efficiency was analyzed on a CytoFLEX flow cytometer (Beckman Coulter; Stanford Stem Cell FACS Core). 72 hours after transfection, cells were washed once with PBS and dissociated with TrypLE Express Enzyme (Thermo Fisher Scientific). Cell suspension was then transferred to a 96-well U-bottom plate (Thermo Fisher Scientific) and centrifuged at 300×G for 5 minutes. After removing the supernatant, pelleted cells were resuspended with 50 μl 4% FBS in PBS, and cells were sorted within 30 minutes of preparation.
(§3) 15 different species of microbes having RecE/RecT proteins were selected for a screen of various RecE and RecT proteins across the microbial kingdom (Table 3). Each protein was codon-optimized and synthesized. As previously described for E. coli RecE/RecT based REDIT systems, each protein was fused via E-XTEN linker to the MCP protein with additional nuclear localization signal. mKate knock-in gene-editing assay was used to measure efficiencies at DYNLT1 locus (FIG. 26A, Table 4) and HSP90AA1 locus (FIG. 26B, Table 4).

HSP90AA1 locus = assay: mKate knock-in gene-editing assay, RecE/RecT homologs, HSP90AA1 locus; format: cell-based, human; conditions: HEK293 cells, MCP fusion, n=3
Experimental: as §1, §2, §3

| Molecule | Mean mKate+ (%), DYNLT1 (DYNLT1 locus) [%] | Mean mKate+ (%), HSP90AA1 (HSP90AA1 locus) [%] |
| --- | --- | --- |
| B1 | 9.8467 | 4.9233 |
| B2 | 5.0400 | 5.7133 |
| B3 | 4.4000 | 3.5900 |
| B4 | 8.5900 | 5.2733 |
| B5 | 7.0567 | 3.1167 |
| B6 | 4.4733 | 5.7367 |
| B7 | 5.3233 | 5.6900 |
| B8 | 5.2633 | 6.0800 |
| B9 | 4.6567 | 7.0533 |
| B10 | 8.5333 | 5.5900 |
| B11 | 8.1300 | 6.2000 |
